Laboratory results: patent publication US20240151728A1 (KOREA INSTITUTE OF SCIENCE AND TECHNOLOGY, published 2024)
Residue numbers refer to the chain shown, from its start.

What was measured:
[1] = biological target: T1, hMSLN recombinant protein (human mesothelin) (human, UniProt Q13421 296-598, limits assumed); assay: ELISA: 100 ng purified scFv coated per well, biotinylated hMSLN titrated, streptavidin-HRP, A450; the concentration varied is that of hMSLN
T1 construct: Amine-coupled to a CM5 chip for SPR; also called recombinant mesothelin (MSLN); biotinylated hMSLN recombinant protein
Experimental: (§1) Specifically, each well of the 96-well immune plate was coated with 100 ng of the scFv variants produced as recombinant proteins at 4° C. for 16 hours. After adding 100 μl of pH 7.4 PBS supplemented with 3% bovine serum albumin (BSA) to each well, the cells were incubated at room temperature for 1 hour, and the plate was washed three times with 350 μl of PBS-T. The biotinylated hMSLN recombinant protein was diluted to 1 μM, 200 nM, 40 nM, 8 nM, 1.6 nM, and 0.32 nM in the pH 7.4 PBS, and reacted at room temperature for 1 hour with each of the coated scFv antibodies. Afterwards, the cells were washed three times with 350 μl of PBS-T per well. Then, 50 μl of HRP-conjugated streptavidin diluted at 1:15,000 in the pH 7.4 PBS was added to the cells followed by incubation of the cells at room temperature for 1 hour, and washing three times with 350 μl of PBS-T. After adding 50 μl of TMB, the cells were incubated at room temperature for 15 minutes, the reaction was terminated by adding 50 μl of 2 M H₂SO₄, and the absorbance at 450 nm was measured.

[2] = biological target: T1, hMSLN recombinant protein (human …); assay: SPR, BIAcore T200; hMSLN amine-coupled on CM5 chip, scFv injected; 1:1 Langmuir model; mean of three experiments
Experimental: (§2) To measure the affinity of the selected variants, surface plasmon resonance (SPR) was performed by using a BIAcore T200 device. For analysis, hMSLN was immobilized on a CM5 sensor chip by using an amine coupling method. Experiments were performed by using HBS-EP buffer, and diluted samples of each scFv variant were injected at a rate of 30 μl/min for 120 seconds and dissociated for 5 minutes. After the first experiment, 5 mM NaOH and 0.5 M arginine at pH 8.0 were sequentially injected for 30 seconds to regenerate the chip. For each scFv variant, three separate experiments were averaged to determine a dissociation constant, and each dissociation constant was determined by using a 1:1 Langmuir model in BIAevaluation 3.2 software.

[3] = biological target: T2, hMSLN recombinant protein (human mesothelin) (human, UniProt Q13421 296-598); assay: ELISA: 100 ng purified scFv coated per well, biotinylated hMSLN titrated, streptavidin-HRP, A450; the concentration varied is that of hMSLN
Experimental: as §1

[4] = biological target: T2, hMSLN recombinant protein (human …); assay: SPR, BIAcore T200; hMSLN amine-coupled on CM5 chip, scFv injected; 1:1 Langmuir model; mean of three experiments
Experimental: as §2

T1 sequence (Q13421 other isoform, or with tags, fused parts or gaps limits assumed): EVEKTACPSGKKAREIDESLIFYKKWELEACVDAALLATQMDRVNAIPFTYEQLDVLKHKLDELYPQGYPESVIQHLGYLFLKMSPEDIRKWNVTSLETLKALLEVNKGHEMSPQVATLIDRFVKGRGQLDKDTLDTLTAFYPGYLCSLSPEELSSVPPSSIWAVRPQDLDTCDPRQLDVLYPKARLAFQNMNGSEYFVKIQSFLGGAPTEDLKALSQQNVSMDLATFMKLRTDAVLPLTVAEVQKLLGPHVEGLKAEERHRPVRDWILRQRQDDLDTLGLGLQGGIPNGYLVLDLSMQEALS
T2 sequence (Q13421 other isoform, or with tags, fused parts or gaps): as the sequence (Q13421 other isoform, or with tags, fused parts or gaps limits assumed) above

B1: wild-type M5 scFv (DFDY) (scFv)
scFv: QVQLVQSGAEVEKPGASVKVSCKASGYTFTDYYMHWVRQAPGQGLEWMGWINPNSGGTNYAQKFQGRVTMTRDTSISTAYMELSRLRSDDTAVYYCASGWDFDYWGQGTLVTVSSGGGGSGGGGSGGGGSGGGGSDIVMTQSPSSLSASVGDRVTITCRASQSIRYYLSWYQQKPGKAPKLLIYTASILQNGVPSRFSGSGSGTDFTLTISSLQPEDFATYYCLQTYTTPDFGPGTKVEIK
notes: Recombinant protein made in E. coli BL21(DE3) and purified; also called WT M5 scFv; WT DFDY
- EC50 (read off the curve) [1]: ~40 nM
- Kd [2]: 11.2 nM

B2: DGAD (scFv)
chain: B1 scFv with F102G, D103A, Y104D
- EC50 (read off the curve) [3]: ~40 nM

B3: M5 scFv variant DVAY (scFv)
chain: B1 scFv with F102V, D103A
- Kd [4]: 121 nM
